Results reported in patent US20180193475A1 (Novartis, published 2018).

Columns and labels:
[1] = target: T1, Rat cKIT D1-5, C-terminal mFc (rat); assay: SPR (Biacore 2000): antibody captured by anti-human Fc, cKIT ECD in solution
T1 construct: The whole entry is rat cKIT ECD residues 25-526, a linker and a mouse Fc tag; also called rat cKIT-mFc
T1 chain: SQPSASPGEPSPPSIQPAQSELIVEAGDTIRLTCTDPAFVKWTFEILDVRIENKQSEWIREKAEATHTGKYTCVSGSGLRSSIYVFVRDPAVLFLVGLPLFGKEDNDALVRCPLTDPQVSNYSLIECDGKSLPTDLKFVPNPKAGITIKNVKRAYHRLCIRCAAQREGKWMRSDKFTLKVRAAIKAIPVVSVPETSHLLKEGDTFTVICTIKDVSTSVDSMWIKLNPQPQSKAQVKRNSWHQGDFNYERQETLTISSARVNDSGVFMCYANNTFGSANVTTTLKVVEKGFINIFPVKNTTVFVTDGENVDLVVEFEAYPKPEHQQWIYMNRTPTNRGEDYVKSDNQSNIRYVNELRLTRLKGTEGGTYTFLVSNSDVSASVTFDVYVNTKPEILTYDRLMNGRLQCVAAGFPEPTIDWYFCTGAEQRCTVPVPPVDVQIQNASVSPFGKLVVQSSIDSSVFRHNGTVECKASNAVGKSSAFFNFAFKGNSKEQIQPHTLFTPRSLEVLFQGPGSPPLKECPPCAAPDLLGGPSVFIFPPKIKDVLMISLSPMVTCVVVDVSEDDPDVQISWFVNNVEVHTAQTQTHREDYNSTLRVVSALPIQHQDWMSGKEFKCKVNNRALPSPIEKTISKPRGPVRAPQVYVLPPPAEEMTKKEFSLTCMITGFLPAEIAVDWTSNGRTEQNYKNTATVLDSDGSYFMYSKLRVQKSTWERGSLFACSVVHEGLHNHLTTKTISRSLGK
Procedure: (§1) Affinity of the antibodies to cKIT species orthologues and also to cKIT was determined using SPR technology using a Biacore® 2000 instrument (GE Healthcare, Pittsburgh, Pa.) and with CM5 sensor chips.
(§2) Briefly, HBS-P (0.01 M HEPES, pH 7.4, 0.15 M NaCl, 0.005% Surfactant P20) supplemented with 2% Odyssey® blocking buffer (Li-Cor Biosciences, Lincoln, Nebr.) was used as the running buffer for all the experiments. The immobilization level and analyte interactions were measured by response unit (RU).
(§3) For kinetic measurements, the experiments were performed in which the antibodies were captured to the sensor chip surface via the immobilized anti-human Fc antibody and the ability of the cKIT proteins to bind in free solution was determined. […] 0.1-1 μg/ml of test antibodies were then injected at 10 μl/min for 1 minute. […] Subsequently, 3.125-50 nM of cKIT receptor extracellular domains (ECD) were diluted in a 2-fold series and injected at a flow rate of 40 μl/min for 3 min over both reference and test flow cells. Table of tested ECDs is listed below (Table 6). Dissociation of the binding was followed for 10 min. After each injection cycle, the chip surface was regenerated with 3 M MgCl₂ at 10 μl/min for 30 seconds.

[2] = target: T2, Mouse cKIT ECD, C-terminal 6x His (Sino Biological Inc, catalog number 50530-M08H) (mouse, UniProt P05532 25-527); assay: as above
T2 construct: extracellular domain; Bought protein; not shown: C-terminal 6x His tag
T2 sequence (looked up): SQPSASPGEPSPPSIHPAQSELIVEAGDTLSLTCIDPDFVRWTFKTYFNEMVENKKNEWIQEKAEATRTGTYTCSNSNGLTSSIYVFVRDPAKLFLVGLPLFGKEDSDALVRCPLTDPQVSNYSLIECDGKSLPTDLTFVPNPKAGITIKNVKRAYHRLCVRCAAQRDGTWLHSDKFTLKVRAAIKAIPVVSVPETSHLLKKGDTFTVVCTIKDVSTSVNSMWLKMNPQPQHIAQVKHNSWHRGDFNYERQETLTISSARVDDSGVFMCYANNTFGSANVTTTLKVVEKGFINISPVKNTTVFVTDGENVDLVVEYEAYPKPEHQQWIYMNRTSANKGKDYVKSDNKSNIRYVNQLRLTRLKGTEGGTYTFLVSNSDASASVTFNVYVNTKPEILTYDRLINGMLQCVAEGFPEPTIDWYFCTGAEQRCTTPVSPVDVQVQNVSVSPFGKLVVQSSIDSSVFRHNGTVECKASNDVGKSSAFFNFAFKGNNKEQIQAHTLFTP
Procedure: as §1, §2, §3

[3] = target: T3, Cynomolgus monkey cKIT D1-5 (cyno cKIT ECD, C-terminal 6x His) (cynomolgus monkey, UniProt P10721 25-520 (human entry)); assay: SPR (Biacore 2000): antibody captured by anti-human Fc on CM5, cKIT ECD in solution, 25 C, 1:1 fit
T3 construct: The signal peptide is not part of the protein in the assay; The entry includes the C-terminal His tag; also called cynomolgus monkey ECD
T3 chain: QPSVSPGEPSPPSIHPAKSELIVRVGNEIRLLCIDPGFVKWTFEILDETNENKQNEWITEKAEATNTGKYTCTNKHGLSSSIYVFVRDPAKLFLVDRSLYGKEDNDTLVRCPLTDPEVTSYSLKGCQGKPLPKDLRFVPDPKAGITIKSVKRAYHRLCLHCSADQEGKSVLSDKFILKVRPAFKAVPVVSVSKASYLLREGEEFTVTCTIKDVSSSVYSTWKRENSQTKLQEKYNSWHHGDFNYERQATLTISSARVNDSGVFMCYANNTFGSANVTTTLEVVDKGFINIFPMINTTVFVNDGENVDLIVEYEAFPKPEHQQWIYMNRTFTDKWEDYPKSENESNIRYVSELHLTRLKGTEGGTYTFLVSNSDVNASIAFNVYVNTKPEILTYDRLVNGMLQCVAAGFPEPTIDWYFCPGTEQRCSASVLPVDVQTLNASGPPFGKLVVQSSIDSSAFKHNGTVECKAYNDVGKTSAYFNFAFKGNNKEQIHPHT
Procedure: as §1, §2, §3

[4] = target: T4, Human cKIT D1-5 (human cKIT ECD, C-terminal 6x His) (human, UniProt P10721 26-524); assay: as above
T4 construct: also called human cKIT-His
T4 sequence (P10721 other isoform, or with tags, fused parts or gaps limits assumed): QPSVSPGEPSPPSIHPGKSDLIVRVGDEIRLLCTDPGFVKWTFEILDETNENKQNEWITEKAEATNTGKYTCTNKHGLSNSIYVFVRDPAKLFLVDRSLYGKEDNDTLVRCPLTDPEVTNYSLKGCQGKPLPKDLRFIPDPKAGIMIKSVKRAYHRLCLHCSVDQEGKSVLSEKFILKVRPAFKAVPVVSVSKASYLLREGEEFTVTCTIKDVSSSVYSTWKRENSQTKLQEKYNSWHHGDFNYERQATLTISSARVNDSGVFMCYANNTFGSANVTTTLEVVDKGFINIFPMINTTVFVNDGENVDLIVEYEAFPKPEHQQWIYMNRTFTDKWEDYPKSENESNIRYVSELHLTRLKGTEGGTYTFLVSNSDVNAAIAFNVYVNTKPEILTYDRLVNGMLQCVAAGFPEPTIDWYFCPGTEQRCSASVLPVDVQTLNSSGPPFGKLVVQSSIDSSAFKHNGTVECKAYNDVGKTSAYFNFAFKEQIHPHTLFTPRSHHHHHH
Procedure: as §1, §2, §3

[5] = target: T5, Human cKIT D1-3 (ECD subdomains 1-3, ligand binding domain) (human, UniProt P10721 26-311); assay: ELISA on coated cKIT ECD subdomains
T5 construct: also called cKIT subdomains 1-3
T5 sequence (P10721 other isoform, or with tags, fused parts or gaps limits assumed): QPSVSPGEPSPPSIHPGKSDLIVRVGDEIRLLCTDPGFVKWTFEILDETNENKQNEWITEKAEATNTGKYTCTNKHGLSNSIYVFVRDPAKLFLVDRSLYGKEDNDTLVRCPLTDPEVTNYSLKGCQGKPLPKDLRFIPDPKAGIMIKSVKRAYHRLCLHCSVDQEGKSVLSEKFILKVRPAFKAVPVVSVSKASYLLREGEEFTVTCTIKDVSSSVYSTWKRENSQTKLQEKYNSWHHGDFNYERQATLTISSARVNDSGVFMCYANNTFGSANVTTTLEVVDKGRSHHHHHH

[6] = target: T2, Mouse cKIT ECD, C-terminal 6x His (Sino …); assay: SPR (Biacore 2000): antibody captured by anti-human Fc on CM5, cKIT ECD in solution, 25 C, 1:1 fit
Procedure: as §1, §2, §3

Row | Binder | binding result [1] | binding result [2] | Kd [3] | Kd [4] | binding result [5] | Kd [6]
1 | 20507 (antibody, human IgG1, kappa, V domains shown, HuCAL-derived human IgG1 kappa) VH: QVQLVQSGAEVKKPGSSVKVSCKASGGTFSSYAISWVRQAPGQGLEWMGTIGPFEGQPRYAQKFQGRVTITADESTSTAYMELSSLRSEDTAVYYCARGGYISDFDVWGQGTLVTVSS VL: DIQMTQSPSSLSASVGDRVTITCRASQSISNYLAWYQQKPGKAPKLLIYDASSLQSGVPSRFSGSGSGTDFTLTISSLQPEDFATYYCQQYYYESITFGQGTKVEIKR | no binding (tested: 3.125-50 nM ECD injected) | no binding (tested: 3.125-50 nM ECD injected) | 0.56 nM | – | – | –
2 | NEG086 (antibody, human IgG1, kappa, V domains shown, Humanized, optimized variant of 9P3; human IgG1 kappa) VH: EVQLVESGGGLVQPGGSLRLSCAASGFTFSDYYMAWVRQAPGKGLEWVANINQIAGSTYYVDSVQGRFTISRDNAKNSLYLQMNSLRAEDTAVYYCARGDYYGTTYWYFDVWGQGTTVTVSS VL: DIQMTQSPSSLSASVGDRVTITCRASQSISSYLNWYQQKPGKAPKLLIYYTSRLQSGVPSRFSGSGSGTDFTLTISSLQPEDFATYYCQQGRRLWSFGGGTKVEIKR | no binding (tested: 3.125-50 nM ECD injected) | no binding (tested: 3.125-50 nM ECD injected) | 1.34 nM | 1.44 nM | – | –
3 | NEG027 (antibody, human IgG1, kappa, V domains shown, Humanized, optimized variant of 9P3; human IgG1 kappa) VH: EVQLVESGGGLVQPGGSLRLSCAASGFTFSDYYMAWVRQAPGKGLEWVASINQNTGSTYYLDSVRGRFTISRDNAKNSLYLQMNSLRAEDTAVYYCARGDYYGTTYWYFDVWGQGTTVTVSS VL: EIVMTQSPATLSLSPGERATLSCRASQDISNYLNWYQQKPGQAPRLLIYYTSRLQSGIPARFSGSGSGTDYTLTISSLEPEDFAVYYCQQGKKLWSFGGGTKVEIKR | no binding (tested: 3.125-50 nM ECD injected) | no binding (tested: 3.125-50 nM ECD injected) | – | 1.34 nM | – | –
4 | NEG026 (antibody, human IgG1, kappa, V domains shown, Humanized, optimized variant of 9P3; human IgG1 kappa) VH: EVQLVESGGGLVQPGGSLRLSCAASGFTFSDYYMAWVRQAPGKGLEWVANINQNTGSTYYVDSVQGRFTISRDNAKNSLYLQMNSLRAEDTAVYYCARGDYYGTTYWYFDVWGQGTTVTVSS VL: EIVMTQSPATLSLSPGERATLSCRASQDISNYLNWYQQKPGQAPRLLIYYTSRLQSGIPARFSGSGSGTDYTLTISSLEPEDFAVYYCQQGKKLWSFGGGTKVEIKR | no binding (tested: 3.125-50 nM ECD injected) | no binding (tested: 3.125-50 nM ECD injected) | – | – | binds | –
5 | NEG085 (antibody, human IgG1, kappa, V domains shown) VH: EVQLVESGGGLVQPGGSLRLSCAASGFAFSGYYMAWVRQAPGKGLEWVANINYPGSSTYYLDSVKGRFTISRDNAKNSLYLQMNSLRAEDTAVYYCARGDYYGTTYWYFDVWGQGTTVTVSS VL: DIQMTQSPSSLSASVGDRVTITCRASQSISSYLNWYQQKPGKAPKLLIYYTSRLQSGVPSRFSGSGSGTDFTLTISSLQPEDFATYYCQQGRRLWSFGGGTKVEIKR | no binding (tested: 3.125-50 nM ECD injected) | no binding (tested: 3.125-50 nM ECD injected) | 6.14 nM | 8.4 nM | – | –
6 | NEG087 (antibody, human IgG1, kappa, V domains shown, Humanized, optimized variant of 9P3; human IgG1 kappa) VH: EVQLVESGGGLVQPGGSLRLSCAASGFTFSDYYMAWVRQAPGKGLEWVASINQNTGSTYYLDSVRGRFTISRDNAKNSLYLQMNSLRAEDTAVYYCARGDYYGTTYWYFDVWGQGTTVTVSS VL: DIQMTQSPSSLSASVGDRVTITCRASQSISSYLNWYQQKPGKAPKLLIYYTSRLQSGVPSRFSGSGSGTDFTLTISSLQPEDFATYYCQQGRRLWSFGGGTKVEIKR | no binding (tested: 3.125-50 nM ECD injected) | no binding (tested: 3.125-50 nM ECD injected) | 1.39 nM | 1.13 nM | – | –
7 | NEG024 (antibody, human IgG1, kappa, V domains shown, Humanized, optimized variant of 9P3; human IgG1 kappa) VH: EVQLVESGGGLVQPGGSLRLSCAASGFTFSDYYMAWVRQAPGKGLEWVANINQIAGSTYYLDSVRGRFTISRDNAKNSLYLQMNSLRAEDTAVYYCARGDYYGTTYWYFDVWGQGTTVTVSS VL: EIVMTQSPATLSLSPGERATLSCRASQDISNYLNWYQQKPGQAPRLLIYYTSRLQSGIPARFSGSGSGTDYTLTISSLEPEDFAVYYCQQGKKLWSFGGGTKVEIKR | no binding (tested: 3.125-50 nM ECD injected) | no binding (tested: 3.125-50 nM ECD injected) | 1.15 nM | 1.31 nM | – | –
8 | anti-cKIT antibody 9P3 (antibody, V domains shown, Hybridoma-derived mouse variable domains) VH: EVRLVESEGGLVQPRSSMKLSCTASGFTFSDYYMAWVRQVPEKGLEWVANINYDGSSTYYLDSLKSRFIISRDNAKNILYLQMSSLKSEDTATYYCARGDYYGTTYWYFDVWGTGTTVTVSS VL: DIQMTQTTSSLSASLGDRVTISCRASQDISNYLNWYQQKPDGTVKLLIYYTSRLQSGVPSRFSGSGSGTDYSLTISNLEQEDIATYFCQQGKKLWSFGGGTKLEIKR | no binding (tested: 3.125-50 nM ECD injected) | no binding (tested: 3.125-50 nM ECD injected) | – | 20 nM | – | –
9 | 20376 (antibody, human IgG1, lambda, V domains shown) VH: QVQLVQSGAEVKKPGSSVKVSCKASGGTFSSYAISWVRQAPGQGLEWMGGIIPMSGRTTYAQKFQGRVTITADESTSTAYMELSSLRSEDTAVYYCARDYGPEAPDYGQSTSYFWYYAFDPWGQGTLVTVSS VL: DIELTQPPSVSVSPGQTASITCSGDNIPSYFVHWYQQKPGQAPVLVIYDDNDRPSGIPERFSGSNSGNTATLTISGTQAEDEADYYCSSWDQDTVVFGGGTKLTVLG | no binding (tested: 3.125-50 nM ECD injected) | – | 4.8 nM | 9.1 nM | – | 2.5 nM
